The supplement of paper PMC12042874
± gives the uncertainty stated by the source.

Assay: amyloid nucleation score (Sup35N fusion, yeast selection) (log enrichment); library NNK1; higher = more nucleation; inactive = no reads after selection
In short: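 The nucleation score is the log enrichment of output over input reads, calculated with DiMSum and centred on the mode score of non-aggregating sequences. Sequences with under 100 input reads were excluded. Reads came from Illumina sequencing of plasmid inserts from psi-negative yeast expressing Sup35N fused to peptides of 20 random codons, induced 24 hours with 100 μM copper sulfate and grown 7 days at 30°C without adenine and uracil.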

Row | Substance | amyloid nucleation score
1 | TIYISVSNRSVDSKDMGYGS | inactive
2 | TKDRFYEC | 0.419 ± 0.58
3 | TKYCFPFNFQGSLHQWRRRF | 0.972 ± 0.52
4 | TLHTKSGLNIMARYPMAERG | 1.31 ± 0.8
5 | TLITWTLVSVGIWTMQS | 1.56 ± 0.53
6 | TLKHLNATISHT | 1.1 ± 0.71
7 | TLLYPYMVPLRRKSLWGAVR | 1.36 ± 0.35
8 | TLNSPECDPNLSLML | -0.555 ± 1.1
9 | TLRLSFCRYMAFWHCNRSMA | -1.14 ± 1.1
10 | TLRMGESCFKWWYQIFIQLF | 0.275 ± 0.93
11 | TLRYKNT | 0.371 ± 0.76
12 | TLSPTAGPAVVALILYGSLT | 1.17 ± 0.65
13 | TLSRFPLAALNLVRVR | 0.3 ± 0.86
14 | TLSTVTG | 0.357 ± 0.37
15 | TLTRYC | -0.086 ± 1.2
16 | TLTSRVENKFRMVIL | 3.46 ± 0.088
17 | TLVIVTFFMIFIGMVSVFYR | 1.27 ± 0.25
18 | TMDDYPLDLHCWAGS | 0.767 ± 1
19 | TMFHLWNFGCVALVR | -0.104 ± 0.34
20 | TMQFFHERGYLLKSRYAGAW | -0.273 ± 0.98
21 | TMSASLNYLTLVMN | 0.129 ± 0.59
22 | TMTFPKVLWPCGLVRNFCST | -0.294 ± 0.67

Row | Substance | amyloid nucleation score
23 | TMTVSFPRLEKCTSK | 0.169 ± 0.35
24 | TMYPLIRLYGSMSRNETGEW | 0.437 ± 0.33
25 | TMYSVYRFVGCKKSFMVRKG | 0.454 ± 0.4
26 | TNFFGSPCAMCNFSLDICSK | 8.038 ± 0.057
27 | TNFYAVFLLLGGSGF | 7.171 ± 0.051
28 | TNILLLHFSDHEFGLEFRYL | 1.68 ± 0.17
29 | TNPLDPLLCNVYQVLDMPCM | 0.497 ± 0.58
30 | TNRPAPLPSYRTILCK | 0.7 ± 0.97
31 | TNSCNLELAVICMSSYWG | 4.71 ± 0.069
32 | TNVKQQACRLRSS | 4.83 ± 0.063
33 | TPKLIAV | -2.05 ± 1.9
34 | TPRYVLLVC | -0.983 ± 2.4
35 | TQMMDALFLSAL | 0.935 ± 0.79
36 | TQMNR | -0.89 ± 0.51
37 | TRALSFN | -0.873 ± 1.6
38 | TRHGLGRFVHSRTVVFIGIW | -0.642 ± 0.82
39 | TRNFKQK | -1.78 ± 1.8
40 | TRQRKDGYADRMQYNSPLRR | 0.342 ± 0.6
41 | TRRYWV | -0.679 ± 0.32
42 | TRTNLVAPCIMEVLSNVHRY | inactive
43 | TRTPAWGWFPQST | -0.105 ± 0.81
44 | TRTRLEHNSVRKFWEL | inactive

Row | Substance | amyloid nucleation score
45 | TRTTKMAH | 1.24 ± 0.45
46 | TRVFSCDACRKN | inactive
47 | TSASVGLVMWTTWMRNQG | 3.75 ± 0.087
48 | TSGLENVSIVNGLPGLDSLV | 0.11 ± 0.99
49 | TSGLSGSESKESTDKCCIEC | 0.713 ± 0.92
50 | TSGSRVRRRWGMLVCRNRSR | -1.25 ± 2.4
51 | TSGWRYGYSSYHYRTLNGFV | -0.35 ± 0.47
52 | TSHPFLLQFMDDPFELSLAQ | -0.714 ± 0.48
53 | TSHPGRCRGYASRASSEVFR | -0.038 ± 0.43
54 | TSHSGIEFRLEFARSSPPSQ | -0.161 ± 0.66
55 | TSKGCQ | inactive
56 | TSMVNI | 0.084 ± 0.88
57 | TSMWTYY | 0.298 ± 0.33
58 | TSNIRVLGHAMVNWVCWGRD | 3.18 ± 0.18
59 | TSPDYPRRYVQMSRR | 0.507 ± 0.52
60 | TSPGRYFCRLHVLHSGM | -0.468 ± 1.9
61 | TSQENTDINGPCKLTSVLQR | 0.436 ± 0.68
62 | TSRGGLFYSGVLICAGGIRM | -0.032 ± 0.54
63 | TSTVG | inactive
64 | TSVSKLQHWIYFTFY | -0.834 ± 1.4
65 | TSYTNAVFESNFA | -0.426 ± 0.3
66 | TTFFYYSEGKIR | -0.657 ± 0.51
